Measured values taken from article PMC3469102, “^64Cu-NODAGA-c(RGDyK) Is a Promising New Angiogenesis PET Tracer: Correlation between Tumor Uptake and Integrin α V β 3 Expression in Human Neuroendocrine Tumor Xenografts” (International Journal of Molecular Imaging, 2012).
Like-named read-outs stand apart in the source and are kept apart here.

Key:
in vitro = in vitro ADME, nude mice; conditions: nude, mouse, plasma
Method: The product (Figure 1) was used without further purification. HPLC analysis was performed with a Jupiter column, 4u Proteo 90A, 250 × 4.6 mm (Phenomenex, Torrance, CA, USA) and flow 1.5 mL/min. The HPLC mobile phase was solvent A, 0.1% trifluoroacetic acid in water, and solvent B, 0.1% trifluoroacetic acid in acetonitrile. Gradient: 0–2 min 15% B, 2–7 min 15–40% B, and 7–10 min 40–15% B. […] Plasma was mixed with equal amounts of acetonitrile after incubation. The resulting mixture was centrifugated and the supernatant was collected and filtered.

[1] = Biodistribution (gamma counting) in mice with H727 xenografts; conditions: female, NMRI nude, mouse, in vivo, iv, 2 MBq, total radioactivity
Method: (§1) Female NMRI (Naval Medical Research Institute) nude mice (6 weeks upon arrival) were acquired from Taconic Europe, Lille Skensved, Denmark. The mice were acclimated one week in the animal facilities before taken into experiments. […] […] Hypnorm^R (Janssen Pharmaceutica NV, Beerse, Belgium)/Dormicum^R (Roche, Basel, Switzerland). Tumors were then grown for 3-4 weeks (average tumor volume 210 mm^3). Animal care and experimental procedures were performed under the approval of the Danish Animal Welfare Council (2006/561-1124). Tumor bearing mice were anesthetized with 3% sevoflurane (Abbott Scandinavia AB, Solna, Sweden) mixed with 35% O2 in N2. […] Mice were sacrificed by neck drawing and tumors, organs (liver, kidneys, lung, spleen, heart, intestine, and muscle) and blood were collected, weighted, and radioactivity measured in a gamma counter (2480 Wizard^2, Perkin Elmer, MA, USA). Tumors were immediately placed in tubes containing RNAlater^R (Ambion Inc., TX, USA), stored overnight at 4°C, RNAlater^R then removed, and tumors stored at -80°C until total RNA extraction and further QPCR experiments were performed. […] (0.97 ± 0.03, 0.64 ± 0.04, 0.65 ± 0.04, and 0.62 ± 0.04) and decreasing further at 18 h p.i.

[2] = tested on: human neuroendocrine tumor xenografts (H727); test: as above; conditions: female, NMRI nude, mouse, in vivo, iv, 2 MBq, 18 h
Method: as §1

[3] = set-up: species or system mice; conditions: mouse, in vivo
Method: Dose Assessment/EXponential Modeling software (OLINDA/EXM; Vanderbilt University, Nashville, TN, USA). To ensure a conservative estimate, the urinary elimination fraction was set to 75% with voiding intervals of 5 hours. The effective dose for both adult male and female were then calculated using OLINDA/EXM.

in vivo = conditions: nude, mouse, iv, 1.6 MBq, total radioactivity
Method: A longitudinal dynamic study was performed scanning a mouse at 1, 2, and 18 hours after intravenous injection of 1.6 MBq ^64Cu-NODAGA-c(RGDyK), allowing dynamic information of the tracer biodistribution in tumors as well as in the other organs of interest. The PET scans were performed using a small animal PET scanner (MicroPET Focus 120, Siemens Medical Solutions, Knoxville, TN, USA). The energy window for the emission PET scans was set to 350–650 keV and the time resolution was 6 ns. Scan time was 10 min.
The acquired data for emission scan was stored in list-mode format and postprocessed to obtain 2 bytes 128 × 144 × 32 sinograms. Finally, the emission sinograms were reconstructed using MAP Algorithms and resulted into 4-byte 256 × 256 × 95 image sets with a zoom factor of 1.443 and a voxel size of 0.87 × 0.87 × 0.79 mm^3. Furthermore, the emission sinograms were corrected for dead time and decay time. Scatter and attenuation corrections were not applied to the emission data. The system was calibrated to provide activity concentrations as Bq/cc.
The small animal CT scans of the mouse parallel with the PET scans were acquired using a small animal computed tomography (microCAT II, Siemens Medical Solutions). The acquisition time of each CT scan was 6.5 minutes generating 360 projections at 360° arc. The X-ray source settings were 75 kVp, 500 μA, and 270 ms for the voltage, the current, and the exposure time, respectively. The CT projections on the 3,000 × 2,970 CCD crystal were binned by 4 to increase sensitivity and reduce the dataset size. The projections were reconstructed by real-time reconstruction algorithm (the COBRA toolbox) using Shepp-Logan filter into 768 × 768 × 512 matrix with a voxel size of 0.092 × 0.092 × 0.092 mm^3.
The fusion of the PET and CT images was performed manually using the ASIPro Toolbox (Siemens Medical Solutions). Also the analyses of PET images were performed in the ASIPro toolbox.
The measurement of the activity uptake in the tumors and the organs were estimated by manually outlining on CT images. […] The 3D ROIs of the organs were then applied on the corresponding PET images. The results of these ROIs acquired the concentration of the tracer in the organs expressed in percentage of the injected dose per gram tissue (%ID/g).

U87MG xenograft tumors = conditions: in vivo; cited from earlier work
Method: The cyclic RGD peptides c(RGDfK) and […] have frequently been used for radiolabeling. c(RGDfK), cyclo [Arg-Gly-Asp-D-Phe-Lys] only differs from c(RGDyK), cyclo [Arg-Gly-Asp-D-Tyr-Lys], in one amino acid, D-Phenylalanine (D-Phe) instead of D-tyrosine (D-Tyr). D-Tyr is more hydrophilic than D-Phe and c(RGDyK) has therefore been reported as preferable due to faster renal excretion. In our study we found a faster decrease of radioactivity in kidneys, intestine, and liver from 1 to 18 h (2.2 to 0.5, 1.6 to 0.4, and 1.1 to 0.4%ID/g) than that reported for ^64Cu-NODAGA-c(RGDfK) in the sam ... || NODAGA-c(RGDy/fK) has been labeled with ^68Ga and NODAGA-c(RGDfK) also with ^64Cu. One paper compared ^68Ga- and ^64Cu-NODAGA-c(RGDfK) and found the highest tracer uptake using ^68Ga-NODAGA-c(RGDfK) compared to ^64Cu-NODAGA-c(RGDfK) (5.2 versus 3.8%ID/g, 1 h p.i. in highly angiogenic U87MG xenograft tumors) but also 3 times higher tumor-to-blood ratio [12]. We found similar T/B ratio (12.7) after 1 hour using ^64Cu-NODAGA-c(RGDyK) as they did with ^64Cu-NODAGA-c(RGDfK). The advantage of ^64Cu labeling is the possibility of delayed imaging up to 12 or 18 h post ...

## N=C(N)NCCC[C@@H]1NC(=O)[C@H](CCCCNC(=O)CCC(C(=O)O)N2CCN(CC(=O)O)CCN(CC(=O)O)CC2)NC(=O)[C@@H](Cc2ccc(O)cc2)NC(=O)[C@H](CC(=O)O)NC(=O)CNC1=O (stereo partly drawn) [^64Cu-NODAGA-c(RGDyK), metal not drawn]
In vitro
  remaining at 24 h, 20 MBq/mL: 88%
[1]; %ID/g intestines
  tissue uptake at 1 h: 1.6 ± 0.16 %ID/g
  tissue uptake at 2 h: 0.64 ± 0.04 %ID/g
  tissue uptake at 18 h: 0.43 ± 0.04 %ID/g
[1]; %ID/g kidneys
  tissue uptake at 1 h: 2.2 ± 0.11 %ID/g
  tissue uptake at 2 h: 0.97 ± 0.03 %ID/g
  tissue uptake at 18 h: 0.51 ± 0.02 %ID/g
[1]; %ID/g liver
  tissue uptake at 1 h: 1.05 ± 0.17 %ID/g
  tissue uptake at 2 h: 0.65 ± 0.04 %ID/g
  tissue uptake at 18 h: 0.43 ± 0.02 %ID/g
[1]; %ID/g spleen
  tissue uptake at 1 h: 0.94 ± 0.11 %ID/g
  tissue uptake at 2 h: 0.62 ± 0.04 %ID/g
  tissue uptake at 18 h: 0.33 ± 0.02 %ID/g
[1]; Mean %ID/g for H727 tumors
  tissue uptake at 2 h: 0.68 ± 0.06 %ID/g
  tissue uptake at 18 h: 0.63 ± 0.04 %ID/g
[1]; Tumor-to-blood ratio
  tissue to tissue ratio at 1 h: 12.7
  tissue to tissue ratio at 2 h: 37.2
  tissue to tissue ratio at 18 h: 20.2
[1]; Tumor-to-intestine ratio
  tissue to tissue ratio at 1 h: 0.72 ± 0.08
  tissue to tissue ratio at 2 h: 1.06 ± 0.11
  tissue to tissue ratio at 18 h: 1.53 ± 0.11
[1]; Tumor-to-liver ratio
  tissue to tissue ratio at 1 h: 1.08 ± 0.11
  tissue to tissue ratio at 2 h: 1.03 ± 0.11
  tissue to tissue ratio at 18 h: 1.54 ± 0.1
[1]; Tumor-to-muscle ratio
  tissue to tissue ratio: 6.5 ± 0.7
  tissue to tissue ratio at 1 h: 4.99 ± 0.59
  tissue to tissue ratio at 2 h: 7.34 ± 1.16
  tissue to tissue ratio at 18 h: 7.09 ± 0.52
[1]; 1 h p.i., biodistribution, H727 xenograft mice, read-out: Tumor-to-kidney ratio
  tissue to tissue ratio at 1 h: 0.51 ± 0.05
[1]; 1 h p.i., i.v. 2.0 ± 0.7 MBq, gamma counter, mean ± SEM, read-out: Mean %ID/g for H727 tumors
  tissue uptake at 1 h: 1.15 ± 0.13 %ID/g
[1]; 18 h p.i., biodistribution, H727 xenograft mice, read-out: Tumor-to-kidney ratio
  tissue to tissue ratio at 18 h: 1.2 ± 0.09
[2]
  %ID/g intestines: 0.4 %ID/g
  %ID/g kidneys: 0.5 %ID/g
  %ID/g liver: 0.4 %ID/g
[3]
  Residence time, Heart: 3.54E − 03 Bq ∗ h/Bq
  Residence time, Kidneys: 2.10E − 01 Bq ∗ h/Bq
  Residence time, Liver: 3.00E − 01 Bq ∗ h/Bq
  Residence time, Lungs: 1.29E − 02 Bq ∗ h/Bq
  Residence time, Small intestine: 2.79E − 01 Bq ∗ h/Bq
  Residence time, Spleen: 1.20E − 02 Bq ∗ h/Bq
In vivo
  tissue to tissue ratio: 6.9 ± 0.8
  tissue uptake at 1 h: 1.15 %ID/g
  tissue uptake at 2 h: 0.99 %ID/g
  tissue uptake at 18 h: 0.76 %ID/g

## ^68Ga-NODAGA-c(RGDfK) (head to tail)
U87MG xenograft tumors
  tumor-to-blood ratio, times higher than ^64Cu-NODAGA-c(RGDfK): 3 times
